The supplement of paper PMC12042874
± gives the uncertainty stated by the source.

Test: amyloid nucleation score (Sup35N fusion, yeast selection) (log enrichment); library NNK1; higher = more nucleation; inactive = no reads after selection
Summary of the method: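 On medium lacking adenine and uracil, psi-negative yeast expressing peptides of 20 random codons fused to Sup35N were grown 7 days at 30°C after a 24-hour induction with 100 μM copper sulfate. Illumina sequencing of input and output plasmid inserts gave the reads, and sequences under 100 input reads were excluded. The nucleation score is the DiMSum log enrichment of output over input reads, centred on the mode score of non-aggregating sequences.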

Row | Substance | amyloid nucleation score
1 | MYLVVTVRFNWLPRDQFTVL | 0.848 ± 0.37
2 | MYSLFMSKVRHFCVT | 2.09 ± 0.6
3 | MYVYVQISYFGLHCVWTMYK | -0.032 ± 0.45
4 | MYYLRHF | inactive
5 | NACFSIKQTYWNVT | 0.537 ± 0.34
6 | NALASLKVMILDPTMELCCA | 0.996 ± 0.9
7 | NCFVWRRMFKLISFDPYRV | inactive
8 | NCHREFIHWVILNSGSSAHM | 1.94 ± 0.57
9 | NCHVT | -0.271 ± 0.29
10 | NCIPALHEYVCMRR | 0.282 ± 0.54
11 | NCLVAFYLKGYSCWWRFIIC | 1.53 ± 0.52
12 | NCNKSFNLLECGSFGTVGPM | -0.324 ± 0.6
13 | NCYSRDRSWGLDVVRYVVWW | -0.329 ± 1.6
14 | NDDSDSVVFSTNGGIYFMHG | -0.177 ± 0.53
15 | NDGVNPYNMACKMLSCYNSA | 1.14 ± 0.97
16 | NDRTGCVVGLHCEMNI | 5.961 ± 0.045
17 | NDRVNRNTFSYPWQVAFFRQ | 4.94 ± 0.064
18 | NDVTVID | 0.286 ± 0.17
19 | NEAMN | -0.21 ± 0.37
20 | NEDLNS | 0.194 ± 0.31
21 | NEECVPHV | 0.223 ± 0.34
22 | NEEGVIQSFILVDALVVQGL | 0.391 ± 0.39

Row | Substance | amyloid nucleation score
23 | NEFVDQFSEHFGRVGEFPAW | -0.316 ± 0.4
24 | NEPHWSLLRF | -0.535 ± 0.65
25 | NFELLPYLSLNWSHFFCSCF | 6.56 ± 0.061
26 | NFFCDSISY | -0.908 ± 1.1
27 | NFFFRMNIN | 2.18 ± 0.39
28 | NFFIWLMVFIGDFFDLVTSA | -0.94 ± 0.59
29 | NFKTSKWYESGRASRSS | -0.076 ± 0.41
30 | NFLMSKTGLTPHR | 0.07 ± 0.51
31 | NFLNGLMLTSRVRKFLASGY | -0.161 ± 0.6
32 | NFLPRTCMLVARFRRKTYLL | 0.879 ± 0.54
33 | NFPVVW | 0.286 ± 0.28
34 | NFSESFLTVNPQTTDVLKLH | -1.18 ± 1.5
35 | NFYSGICMICLGT | 7.307 ± 0.065
36 | NGANMLVCKRFVLVNLYGPA | 6.02 ± 0.063
37 | NGCLFILFCILLFKAQPSIA | 0.057 ± 0.78
38 | NGCTIVGVTKGSLNH | 1.04 ± 0.24
39 | NGFRSVQVLGKGAVMCVNCR | inactive
40 | NGGMGSPLDYQRWSDGDQVG | -0.365 ± 1.1
41 | NGSLLWYVCSSWNVMHDGSV | -1 ± 1.3
42 | NGSRYLANYSQS | 0.23 ± 0.36
43 | NGTGLFNNLWVGSLRLRVTR | 0.192 ± 0.56
44 | NGVRYTVRLFMVLWR | -1.58 ± 2.4

Row | Substance | amyloid nucleation score
45 | NGWNYM | -0.349 ± 1
46 | NGYRNMSRREQTCLR | -0.055 ± 0.36
47 | NHEKGQRTVTMWLSLKDSMG | 3.02 ± 0.12
48 | NHIDGVIGY | 0.083 ± 0.61
49 | NIFVGLLTWLCVKLCMGMFV | -0.633 ± 0.94
50 | NIHVSKVGGLGTNLCYARNA | 1.77 ± 0.51
51 | NIILSYLYFRTARVISEDRR | 4.7 ± 0.081
52 | NIKANQLKGTWKRRTMYRWS | -0.271 ± 0.97
53 | NILCTLPSIGILSAI | -0.249 ± 0.37
54 | NILPSREYHVAKVAGCATGW | -0.618 ± 1.4
55 | NINPLFI | 1.96 ± 0.26
56 | NIVFMCMCGLDI | 0.895 ± 0.29
57 | NIVIIVVSNLN | 3.44 ± 0.082
58 | NKCKKYGYLFRLSGYEGHNL | 5.54 ± 0.091
59 | NKFYCVI | -0.927 ± 1.4
60 | NKMIKWASQDGCRKVRFSEE | -0.427 ± 0.4
61 | NKYLDSKDWRAFCRSYFNLF | 0.891 ± 0.14
62 | NKYLLNF | inactive
63 | NLCVVREWYSKSCWPRFLRV | -0.274 ± 0.56
64 | NLDVYFLVRWLLSCRCACRS | 0.87 ± 0.62
65 | NLFSGNLPRFDFAIQGAFVN | -0.447 ± 0.48
66 | NLFTDVIHYMVAFLLVYYII | 0.682 ± 0.49

Row | Substance | amyloid nucleation score
67 | NLHNRTCWCMYLFDTSWS | 0 ± 0.29
68 | NLKSSYSAIPLFFIWCGTSV | 0.114 ± 0.31
69 | NLLLYVYKKLCFGFVKECII | -0.953 ± 0.57
70 | NLLQLYDICAGCVRYSRWDG | 1.53 ± 0.16
71 | NLLVCGVLRNCVSGTMF | 0.312 ± 1.2
72 | NLNFLFFQWSNIMVCHQNQV | 4.62 ± 0.057
73 | NLREDENSGCNCGVDFLGQG | -0.435 ± 0.4
74 | NLRQHVYICYNLNGRTHFLW | 6.719 ± 0.047
75 | NLSAVRLAYLPCVSHTHCAV | 0.875 ± 0.45
76 | NLSSLSWVTIYKNFCAIMSS | -0.378 ± 0.58
77 | NLSWRISKHMALGVRCLWCH | 0.791 ± 0.72
78 | NLTRITF | -0.762 ± 1.1
79 | NLTVCVQCNAAYCNYLSHRD | 7.517 ± 0.071
80 | NLVAAYRY | 0.146 ± 0.45
81 | NLVFSMPAVWALVYVFTLFI | 1.51 ± 0.37
82 | NMAMYSIWGGWWMVLFCVLL | inactive
83 | NMCFYELDGYMLGNYLARQF | -1.51 ± 1.3
84 | NMEWYRTFCSQCYIGRRGTS | 0.476 ± 0.9
85 | NMIKYVTLKMRL | 0.328 ± 0.6
86 | NMLAQSRSSVIAPLRRVWPV | 0.889 ± 0.77
87 | NMWGVGDVTGIF | 1.62 ± 0.59
88 | NNAGYRYALRKISSHLLRPV | -0.092 ± 0.44
